Where two headings read alike, the source gives them in different places. Where only a bound is given, the exact number is not on record here.

Assay [1] has as its target T1, human RANKL-his protein (prepared in-house with SEQ ID NO: 43) (human, UniProt O14788 136-317).
T1 construct: also called recombinant human RANKL-his
T1 chain: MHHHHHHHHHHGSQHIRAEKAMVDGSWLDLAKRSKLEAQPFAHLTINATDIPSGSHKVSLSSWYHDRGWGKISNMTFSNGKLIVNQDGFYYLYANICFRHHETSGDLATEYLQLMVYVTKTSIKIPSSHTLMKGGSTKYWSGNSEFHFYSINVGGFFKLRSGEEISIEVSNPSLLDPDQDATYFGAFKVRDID
The assay is described as follows: Octet BLI, antibody captured, human RANKL-his in solution. On the procedure:
(§1) Briefly, AHC/AMC biosensors (anti-human/anti-mouse IgG Fc capture, ForteBio) were presoaked with 10 mM glycine (pH 1.5) for 3 seconds, and then dipped in a well with running buffer (0.5% w/v BSA in PBST) for 3 seconds, the soaking and dipping steps were repeated for three times. […] A new baseline was run for 180 seconds in another well with HBS-EP⁺. […] Finally, sensors were presoaked with 10 mM glycine (pH 1.5) for 3 seconds, and then dipped in a well with running buffer for 3 seconds, the soaking and dipping steps repeated for three times. The association and dissociation curves were fit to a 1:1 Langmuir binding model using Octet evaluation software.
(§2) Cell supernatants were harvested after six days in shaking flasks, spun down to pellet cells, and then chimeric antibodies were purified from cell supernatants as described above. The purified antibodies were tested in the capture ELISA, competitive ELISA assay and Octet affinity test following the protocols in the foregoing Examples.
In general terms: In BLI a coated tip is dipped into the sample, and binding shifts an interference pattern.

Assay [2] addresses T2, biotin-labeled human RANKL-Fc protein (prepared in house, SEQ ID NO.: 40) (human, biotin-labeled (sites not given)).
T2 construct: also called RANKL-Fc-biotin
In words: capture ELISA: captured antibody, biotin-labeled human RANKL-Fc, OD(450-630). On the procedure:
(§3) Plates were washed once with wash buffer (PBS+0.05% v/v Tween-20, PBST) and then blocked with 200 μl/well blocking buffer (5% w/v non-fatty milk in PBST) for 2 hours at 37° C. […] After a final wash, plates were incubated with 100 μl/well ELISA substrate TMB (Innoreagents, Cat #TMB-S-002) at room temperature. The reaction was stopped in 3-10 minutes with 50 μl/well 1M H₂SO₄, and the absorbance of each well was read on a microplate reader using dual wavelengths mode with 450 nm for TMB and 630 nm as the reference wavelength. The OD (450-630) values were plotted against antibody concentration. Data were analyzed using Graphpad Prism software and EC₅₀ values were reported.
as §2

Assay [3] has as its target T2, biotin-labeled human RANKL-Fc protein …. In words: competitive ELISA: antibody blocks biotin-labeled human RANKL-Fc binding to coated benchmark denosumab.
Assay [4] has the same target. The assay is described as follows: competitive ELISA: antibody blocks biotin-labeled human RANKL-Fc binding to coated human RANK-Fc. (In general: ELISA stands for enzyme-linked immunosorbent assay.)
Assay [5] has as its target T1, human RANKL-his protein (prepared …). The assay is described as follows: Octet BLI, antibody from cell supernatant captured, human RANKL-his in solution. The procedure: as §1
The chimeric antibody when tested was in HBS-EP⁺ at 5 μg/ml concentration.

For assay [6], the target named is T3, cynomolgus monkey RANKL-his protein (prepared in-house with SEQ ID NO.:42) (cynomolgus monkey, UniProt O14788 136-317 (human entry), limits assumed).
T3 construct: also called Cynomolgus RANKL
T3 chain: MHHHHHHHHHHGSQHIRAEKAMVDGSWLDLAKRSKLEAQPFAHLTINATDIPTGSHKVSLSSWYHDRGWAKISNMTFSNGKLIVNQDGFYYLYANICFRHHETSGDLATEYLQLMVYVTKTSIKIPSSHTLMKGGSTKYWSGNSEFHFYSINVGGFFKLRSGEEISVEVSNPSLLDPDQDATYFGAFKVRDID
The assay is described as follows: Biacore T200 SPR, antibody captured by anti-human IgG, cynomolgus RANKL-his in flow, 1:1 fit. The procedure:
(§4) Briefly, goat anti-human IgG (GE healthcare, Cat #BR100839, Human Antibody Capture Kit) was covalently linked to a CM5 chip (carboxy methyl dextran coated chip from GE healthcare #BR10030) via primary amines, using a standard amine coupling kit provided by Biacore. Un-reacted moieties on the biosensor surface were blocked with ethanolamine. […] The antigen-antibody association kinetics was followed for 2 minutes and the dissociation kinetics was followed for 10 minutes. The association and dissociation curves were fit to a 1:1 Langmuir binding model using BIAcore evaluation software.
On the technique in general: In SPR one partner is held on a chip, and binding of the other changes the refractive index at the surface.

The target in assay [7] is T4, Recombinant human RANKL-his protein (R&D, Cat #6449-TEC-010) (human, UniProt O14788 140-317, limits assumed).
T4 sequence (looked up): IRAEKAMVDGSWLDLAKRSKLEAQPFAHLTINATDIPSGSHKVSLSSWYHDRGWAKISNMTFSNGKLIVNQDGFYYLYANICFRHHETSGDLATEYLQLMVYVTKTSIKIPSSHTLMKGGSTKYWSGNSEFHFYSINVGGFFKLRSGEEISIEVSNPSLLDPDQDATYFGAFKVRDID
In words: cell-based or functional assay.

The target of assay [8] is T2, biotin-labeled human RANKL-Fc protein …. In words: competitive ELISA: antibody blocks biotin-labeled human RANKL-Fc binding to coated benchmark denosumab. This is another data set of the same source.
In assay [9] the target is T1, human RANKL-his protein (prepared …). The assay is described as follows: Biacore T200 SPR, antibody captured by anti-human IgG, human RANKL-his in flow, 1:1 fit. On the procedure: as §4
Assay [10] has as its target T2, biotin-labeled human RANKL-Fc protein …. In words: competitive ELISA: antibody blocks biotin-labeled human RANKL-Fc binding to coated human RANK-Fc. On the procedure: Briefly, human RANK-Fc proteins (prepared in house, SEQ ID NO.: 41) were coated on 96-well micro plates at 2.0 μg/mL in PBS, 100 μl/well, and incubated overnight at 4° C. The next day, plates were washed with wash buffer (PBS+0.05% w/v Tween-20, PBST), and blocked with 5% w/v non-fatty milk in PBST, 200 μl/well, for 2 hours at 37° C.
Plates were washed 4 times using wash buffer, and added and incubated with 100 μl/well of streptavidin conjugated HRP (1:10000 dilution in PBST buffer, Jackson ImmunoResearch Laboratories, Inc., Cat #016-030-084) for 40 minutes at 37° C. Plates were washed again using wash buffer. Finally, TMB was added and the reaction was stopped using 1M H₂SO₄, and the absorbance of each well was read on a microplate reader using dual wavelengths mode with 450 nm for TMB and 630 nm as the reference wavelength. The OD (450-630) values were plotted against antibody concentration. Data were analyzed using Graphpad Prism software and IC₅₀ values were reported.
The source holds these as a separate data set.

Assay [11] shares this target. In words: capture ELISA: captured antibody, biotin-labeled human RANKL-Fc, OD(450-630). The procedure: as §3
For the capture ELISA, 96-well micro plates were coated with 2 μg/ml goat anti-human IgG (AffiniPure Goat Anti-Human IgG, F(ab′)₂ fragment specific, Jackson Immunoresearch, Cat #109-005-097) instead of AffiniPure Goat Anti-Mouse IgG, Fcγ fragment specific, 100 μl/well.
This is another data set of the same source.

Assay [12] concerns the target T4, Recombinant human RANKL-his protein …. The assay is described as follows: cell-based or functional assay. This is another data set of the same source.

B1: Chimeric B1A8 (antibody, human IgG2, kappa, V domains shown)
VH: EVQLVESGGDLVKPGGSLKLSCAASGFTFSRYGMSWVRQTPDKRLEWVASISSGGTYTSYPDSVQGRFTITRDSAKNTLYLQMSSLKSEDTAMYYCARRNFITSATDCYFDVWGAGTTVTVSS
VL: DTVLTQSPATLSVTPGASVSLSCRASQSISNNLHWYQQKSHESPRLLIIYASQSISGIPSRFSGSGSGTDFTLSINSVETEDFGVYFCQQSNSWPFTFGGGTKLEIKR
notes: Mouse variable regions on human IgG2 / kappa; also called chimeric antibody B1A8
With B1, binding in assay [1] was put at a Kd of 1.62 nM. Also, the EC50 in [2] worked out at 2 nM. The IC50 in assay [3] is 4.4 nM; in assay [4], 0.905 nM.

B2: Chimeric B3D8 (antibody, human IgG2, kappa, V domains shown)
VH: EVQLVESGGDLVKSGGSLKLSCAASGFTFSRYGMSWVRQTPDKRLEWVASISSGGTYTSYPDSVKGRFTITRDSAKNTLYLQMSSLKSEDTAMYYCARRNFITSATDCYFDVWGAGTTVTVSS
VL: DTVLTQSPATLSVTPGASVSLSCRASQSISNNLHWYQQKSHESPRLLIIYASQSISGIPSRFSGSGSGTDFTLSINSVETEDFGVYFCQQSNSWPFTFGGGTKLEIKR
notes: Mouse variable regions on human IgG2 / kappa; also called chimeric antibody B3D8
Molecule B2 returned a Kd in assay [1] of 2.65 nM. Further, the EC50 in assay [2] stood at 3.17 nM. Further, the figures for the IC50 in [3] and in [4] were 16.8 nM and 3.17 nM, respectively.

B3: humanized antibody huD1A1-V2 (antibody, human IgG4 S228P, kappa, V domains shown)
VH: EVQLVESGGGLVKPGGSLRLSCAASGFTFRNYAMSWVRQAPGKGLEWVSGISSGGTYTYYPDTVKGRFTISRDNAKNSLYLQMNSLRAEDTAVYYCARRDYGDVYEWYFDVWGKGTTVTVSS
VL: DIQMTQSPSSLSASVGDRVTITCKASQDVRTSIAWYQQKPGKAPKLLIYSASYRYTGVPSRFSGSGSGTDFTFTISSLQPEDIATYYCQQHYSSPWTFGGGTKVEIKR
notes: Human IgG4 / kappa
Consider B3, for which the Kd is below 0.001 nM in [5], 0.42 nM in assay [6] and 0.134 nM in assay [9]. In addition, the koff in [5] is below 1e-07 s⁻¹. In [5], this molecule yielded a kon of 112000 M⁻¹ s⁻¹. In addition, the figures for the “IC50, RANKL-induced osteoclast differentiation of RAW264.7 cells (pNPP, OD405)” value in [7] and in assay [12] were around 1.45 nM and around 1.42 nM, respectively. For the same molecule, the IC50 was 0.444 nM in [8] and 0.154 nM in assay [10]. The EC50 in assay [11] amounted to 0.2 nM.

B4: humanized antibody huD1A1-V3 (antibody, human IgG4 S228P, kappa, V domains shown)
VH: EVQLVESGGGLVKPGGSLRLSCAASGFTFRNYAMSWVRQAPGKGLEWVAGISSGGTYTYYPDTVKGRFTISRDNAKNSLYLQMNSLRAEDTAVYYCARRDYGDVYEWYFDVWGKGTTVTVSS
VL: DIQMTQSPSSLSASVGDRVTITCKASQDVRTSIAWYQQKPGKAPKLLIYSASYRYTGVPSRFSGSGSGTDFTFTISSLQPEDIATYYCQQHYSSPWTFGGGTKVEIKR
notes: Human IgG4 / kappa
B4: in assay [5], the Kd was below 0.001 nM, the koff was below 1e-07 s⁻¹ and the kon came to 106000 M⁻¹ s⁻¹.

B5: humanized antibody huD1A1-V4 (antibody, human IgG4 S228P, kappa, V domains shown)
VH: EVQLVESGGGLVKPGGSLRLSCAASGFTFRNYAMSWVRQAPGKGLEWVAGISSGGTYTYYPDTVKGRFTISRDNARNSLYLQMNSLRAEDTAVYYCARRDYGDVYEWYFDVWGTGTTVTVSS
VL: DIQMTQSPSSLSASVGDRVTITCKASQDVRTSIAWYQQKPGKSPKLLIYSASYRYTGVPSRFSGSGSGTDFTFTISSLQPEDLATYYCQQHYSSPWTFGGGTKVEIKR
notes: Human IgG4 / kappa
On to B5, for which, in [5], the Kd was below 0.001 nM, the koff is below 1e-07 s⁻¹ and the kon worked out at 101000 M⁻¹ s⁻¹.

B6: humanized antibody huD1A1-V1 (antibody, human IgG4 S228P, kappa, V domains shown)
VH: EVQLVESGGGLVKPGGSLRLSCAASGFTFRNYAMSWVRQAPGKGLEWVAGISSGGTYTYYPDTVKGRFTISRDNARNSLYLQMNSLRAEDTAVYYCARRDYGDVYEWYFDVWGTGTTVTVSS
VL: DIQMTQSPSSLSASVGDRVTITCKASQDVRTSIAWYQQKPGKAPKLLIYSASYRYTGVPSRFSGSGSGTDFTFTISSLQPEDIATYYCQQHYSSPWTFGGGTKVEIKR
notes: Human IgG4 / kappa
In assay [5], B6 returned a Kd below 0.001 nM, a koff below 1e-07 s⁻¹ and a kon of 124000 M⁻¹ s⁻¹.

B7: humanized antibody huD1A1-V6 (antibody, human IgG4 S228P, kappa, V domains shown)
VH: EVQLVESGGGLVKPGGSLRLSCAASGFTFRNYAMSWVRQAPGKGLEWVAGISSGGTYTYYPDTVKGRFTISRDNAKNSLYLQMNSLRAEDTAVYYCARRDYGDVYEWYFDVWGKGTTVTVSS
VL: DIQMTQSPSSLSASVGDRVTITCKASQDVRTSIAWYQQKPGKSPKLLIYSASYRYTGVPSRFSGSGSGTDFTFTISSLQPEDLATYYCQQHYSSPWTFGGGTKVEIKR
notes: Human IgG4 / kappa
For the molecule B7, in assay [5], the Kd was below 0.001 nM, the koff is below 1e-07 s⁻¹ and the kon turned out to be 115000 M⁻¹ s⁻¹.

B8: Chimeric D1E3 (antibody, human IgG2, kappa, V domains shown)
VH: EVQLVESGGGLVKPGGSLKLSCAASGFTFSRYAMSWVRQTPEKRLEWVAGISSGGTYTYYPDTVKGRFTISRDSAKNILYLQMGSLRSEDSAMYHCARRDYGDVYEWYFDVWGTGTTVTVSS
VL: DIVMTQSHKFMSASVGDRVSITCKASQGVRIAVAWYQQKPGQSPKLLIYSASYRYTGVPDRFTGSGSGTDFTFTISSVQAEDLAVYYCQQHHSSPWTFGGGTKLEIKR
notes: Mouse variable regions on human IgG2 / kappa; also called chimeric antibody D1E3
B8: the Kd in assay [1] is 0.612 nM. Besides, a half-maximal effect in [2] (EC50) was put at 0.183 nM. For the same molecule, the IC50 came out at 0.258 nM in assay [3] and 0.0505 nM in [4].

A word on the Kd: it is the free concentration of one partner at which half of the binding sites on the other are occupied at equilibrium, for simple one-to-one binding. The EC50 is the concentration giving half of the maximal effect. The term IC50 denotes the point on the concentration scale where inhibition reaches its midpoint. A word on the koff: it is the first-order rate constant of dissociation. The term kon denotes the rate constant with which the complex forms.

The record behind these values is patent publication US20230034768A1 (BIOSION, published 2023).
